Experimental data reported in PMC6608630, “The structural characterization of a glucosylglycerate hydrolase provides insights into the molecular mechanism of mycobacterial recovery from nitrogen starvation” (IUCrJ, 2019).

Experiments:
[1] = substrate: O=C(O)[C@@H](CO)O[C@H]1O[C@H](CO)[C@@H](O)[C@H](O)[C@H]1O; assay: released glucose by glucose oxidase assay; allosteric sigmoidal fit; type: biochemical, Mycolicibacterium hassiacum; details: 20 mM sodium phosphate pH 6.0, 100 mM KCl, 5 mM MgCl2, 50 °C, Hill h 1.77, tag-less enzyme
From the text: released glucose by glucose oxidase assay; allosteric sigmoidal fit on MhGgH (M. hassiacum glucosylglycerate hydrolase)

[2] = substrate: O=C(O)[C@@H](CO)O[C@H]1O[C@H](CO)[C@@H](O)[C@H](O)[C@@H]1O; assay: released mannose by K-MANGL assay kit; allosteric sigmoidal fit; type: biochemical, Mycolicibacterium hassiacum; details: 20 mM sodium phosphate pH 6.0, 100 mM KCl, 5 mM MgCl2, 50 °C, Hill h 1.29, tag-less enzyme, rough estimation, incomplete kinetic curve
From the text: released mannose by K-MANGL assay kit; allosteric sigmoidal fit on MhGgH (M. hassiacum glucosylglycerate hydrolase)

B1: MhGgH (M. hassiacum glucosylglycerate hydrolase) (Mycolicibacterium hassiacum DSM 44199) (protein)
chain: MPHDPSFTPTQLAARAAYLLRGNDLGTMTTAAPLLYPHMWSWDAAFVAIGLAPLSVERAVVELDTLLSAQWRNGMIPHIVFANGVDGYFPGPARWATATLADNAPRNRLTSGITQPPVHAIAVQRILEHARTRGRSTRAVAEAFLDRRWGDLMRWHRWLAECRDRNERGRITLYHGWESGMDNSPRWDSAYANVVPGKLPEYQRADNVIITDPSQRPSDGEYDRYLWLLEEMKAVRYDDERLPSVMSFQVEDVFFSAIFSVACQVLAEIGEDYKRPHADVKDLYLWAERFRAGVVETTDQRTGAARDFDVLAEKWLVTETAAQFAPLLCGGLPHDRERALLKLLEGPRFCGHPDLKYGLIPSTSPVSRDFRPREYWRGPVWPVLTWLFSWCFARRGWAERARLLRQEGLRQASDGSFAEYYEPFTGEPLGSMQQSWTAAAVLDWLG
notes: full-length from pETM11-MhGgH, N-terminal His tag removed with TEV protease leaving Gly-Ala dipeptide; E. coli BL21(DE3); homotetramer; last residue Gly446
In the case of B1, the K0.5 [1] is reported as 9.36 ± 0.69 mM, the Vmax [1] is reported as 3.6 µmol/min/mg and the K0.5 [2] is reported as 84.18 ± 30.27 mM. The Vmax [2] was 3.09 µmol/min/mg.
